Target: enzyme I (phosphoenolpyruvate-protein phosphotransferase, EC 2.7.3.9) of the E. coli phosphotransferase system (E. coli), P08839
Assay: cell-based or functional assay

SSLRGHRWVY (modifications not checked) [peptide 17 …] was tested, and the inhibition IC50 was 120 µM and the uncoupling Pi/peptide (x IC50/h) (Pi/peptide (x IC50/h)) was 50.3.

From patent EP0866075B1, “Method to treat microbial infections by uncoupling of phosphotransferase system and appropriate agents therefor” (Arpida AG,, priority 1997, dated 1998)
